Patent US10011657B2, “Anti-CS1 antibodies and antibody drug conjugates” (AbbVie Biotherapeutics Inc., priority 2014, dated 2018)
Positions count from the first letter of the chain named. Like-named read-outs stand apart in the source and are kept apart here.

Experiments:
OPM-2 xenografts = OPM-2 xenografts in effector-cell-negative NSG mice; format: in vivo
Experimental: (§1) OPM-2 xenografts were prepared and conducted as previously described. NSG mice (NOD.Cg-Prkdcscid Il2rgtm1Wj1/SzJ) from The Jackson Laboratory (strain code 05557) were used. This strain lacks effector cells and eliminates the ADCC mechanism for all antibodies. AB095, an antibody that targets tetanus toxoid, was run as control. Dosing of test ADCs was normalized such that equal masses of the PBD component were delivered.
as §1, with “toxoid” for “toxoid,”, “SN38” for “PBD”
The combination of Hu34C3-MMAE E2 plus carfilzomib inhibited tumor growth (TGImax 43% (FIG. 26A) and TGImax 59% (FIG. 26B)) at similar levels to Hu34C3-MMAE E2 alone.
Efficacy of Hu34C3-MMAE E2 in combination with pomalidomide ((also known as 4-Amino-2-(2,6-dioxopiperidin-3-yl)isoindole-1,3-dione; marketed under the tradename POMALYST by Celgene Corporation, Summit, N.J. 07901) and/or dexamethasone ((also known as 8S,9R,10S,11S,13S,14S,16R,17R)-9-fluoro-11,17-dihydroxy-17-(2-hydroxyacetyl)-10,13,16-trimethyl-6,7,8,9,10,11,12,13,14,15,16,17-dodecahydro-3H-cyclopenta[a]phenanthren-3-one) was determined in subcutaneous xenografts of OPM-2 cells (van Rhee et al., 2009 Mol. Cancer Therapeutics 8: 2616-24). Effector-cell-negative mice were used (NSG strain) in this experiment. Vehicle (PBS/DMSO) was run as a control. ADCs were dosed at 3 or 6 mg/kg i.p.; pomalidomide was dosed at 20 mg/kg i.p. and dexamethasone was dosed at 10 mg/kg i.p.
Efficacy of Hu34C3-MMAE E2 was determined in subcutaneous xenografts of OPM-2 cells (van Rhee et al., 2009 Mol. Cancer Therapeutics 8: 2616-24). These xenografts were treated with bortezomib twice a week for two weeks. […] These tumors were re-randomized and either continued with bortezomib treatment or were switched to lenalidomide plus dexamethasone, pomalidomide, Hu34C3-MMAE E2, or Hu34C3-MMAE E2 plus pomalidomide treatments.

human CS1 [1] = target: T1, human CS1 (Homo sapiens, UniProt Q9NQ25); experiment: Flow-cytometry competition assay with AF488-labeled PDL241 (murine antibodies, Example 2); format: binding; conditions: 293s cells transfected with human CS1; 60 μg/mL unlabeled test antibody, 6 μg/mL labeled PDL241; less than 20% inhibition = does not compete
T1 construct: expressed in transfected cells; host or cells: 293s cells
Experimental: 293s cells transfected with human CS1 (300,000 cells per data point) were incubated at various concentrations with an AF488-labeled PDL241 antibody. The concentration at which 80% of maximal binding occurred was identified (6 μg/mL) and used for the subsequent competition assays.
(§2) For the competition assays, transfected 293s cells (300,000 cells per data point) were incubated for 30 min (on ice) with a tenfold excess of unlabeled test antibody (60 μg/mL). After the incubation, 6 μg/mL of AF488-labeled PDL241 was added to the cells and incubated on ice for 30 minutes. After this incubation, the cells were washed with PBS+1% FBS, and binding of AF488-labeled PDL241 was determine by flow cytometry.

[2] = test system: L-363 human multiple myeloma cells; experiment: In vitro proliferation assay (CellTiter-Blue), L-363 cells; format: cell-based; conditions: four days
Experimental: All antibodies were conjugated to each of monomethyl auristatin E (“MMAE”; auristatin microtubule inhibitor), monomethyl auristatin F (“MMAF”; auristatin microtubule inhibitor) and duocarmycin (DNA damaging drug) using previously described methods (Doronina et al., 2003, Nat Biotechnology 21(7):778-784; Polson et al., 2007, Blood 1102:616-623). Drug loading for each ADC was similar. 10,000-20,000 cells (L-363 human multiple myeloma cells) expressing HuCS1 were plated into 96-well plates, and different amounts of ADCs added to the cells. Four days post addition of ADC, cell viability was measured using the CellTiter-Blue® Cell Viability Assay (Promega), and IC50 values were calculated.

human CS1 [3] = target: T1, human CS1; experiment: Flow-cytometry competition assay with AF488-labeled elotuzumab; format: binding; conditions: 293s cells transfected with human CS1; 100 μg/mL test antibody, 10 μg/mL labeled elotuzumab
Experimental: A similar experiment was conducted with AF488-labeled elotuzumab at 10 μg/mL. Transfected 293s cells (300,000 cells per data point) were incubated for 30 min (on ice) with a tenfold excess of unlabeled antibody (100 μg/mL). After the incubation, 10 μg/mL of AF488-labeled elotuzumab was added to the cells and incubated on ice for 30 minutes. After this incubation, the cells were washed with PBS+1% FBS and binding of AF488-labeled elotuzumab determined by flow cytometry.

human CS1 [4] = target: T1, human CS1; experiment: Flow-cytometry competition assay with AF488-labeled PDL241 (humanized antibodies, Example 5); format: binding; conditions: 293s cells transfected with human CS1; 50 μg/mL test antibody, 5 μg/mL labeled PDL241
Experimental: as §2, with “293s cells” for “For the competition assays,”, “transfected with human CS1 were incubated at various concentrations with an AF488 labeled PDL241 antibody. […] Transfected” for “transfected”, “(50” for “(60”, “5” for “6”, “FBS” for “FBS,”

HuCS1 = target: T2, HuCS1 (Homo sapiens, UniProt Q9NQ25); experiment: Flow-cytometry competition assay with AF488-labeled Luc34.3.8 on L-363 cells; format: binding; conditions: 20 μg/mL test antibody, 2 μg/mL labeled Luc34.3.8
T2 construct: L-363 cells (human multiple myeloma cell line) expressing HuCS1; endogenous in cells; host or cells: L-363 human multiple myeloma cell line
Experimental: A similar experiment was conducted with AF488-labeled Luc34.3.8 at 2 μg/mL. L-363 cells (human multiple myeloma cell line) expressing HuCS1 (300,000 cells per data point) was incubated for 30 min (on ice) with a tenfold excess of unlabeled test antibody (20 μg/mL). After the incubation, 2 μg/mL of AF488-labeled Luc34.3.8 was added to the cells and incubated on ice for 30 minutes. After this incubation, the cells were washed with PBS+1% FBS, and binding of AF488-labeled […] determined by flow cytometry.

human CS1 [5] = target: T1, human CS1; experiment: Flow-cytometry competition assay with AF488-labeled Hu34C3; format: binding; conditions: 293s cells transfected with human CS1; 100 μg/mL test antibody, 10 μg/mL labeled Hu34C3
Experimental: For the competition assays, transfected 293s cells (300,000 cells per data point) were incubated for 30 min (on ice) with a tenfold excess of unlabeled test antibody (100 μg/mL).

[6] = Example 29, low-dose Hu34C3-MMAE E2 3 mg/kg i.p., pomalidomide 20 mg/kg i.p., dexamethasone 10 mg/kg i.p.
[7] = antibody conjugated to MMAF, read-out: IC50, MMAF ADC
[8] = antibody conjugated to duocarmycin, read-out: IC50, Duo ADC
[9] = antibody conjugated to MMAE, read-out: IC50, MMAE ADC

T1 sequence (Q9NQ25 23-335): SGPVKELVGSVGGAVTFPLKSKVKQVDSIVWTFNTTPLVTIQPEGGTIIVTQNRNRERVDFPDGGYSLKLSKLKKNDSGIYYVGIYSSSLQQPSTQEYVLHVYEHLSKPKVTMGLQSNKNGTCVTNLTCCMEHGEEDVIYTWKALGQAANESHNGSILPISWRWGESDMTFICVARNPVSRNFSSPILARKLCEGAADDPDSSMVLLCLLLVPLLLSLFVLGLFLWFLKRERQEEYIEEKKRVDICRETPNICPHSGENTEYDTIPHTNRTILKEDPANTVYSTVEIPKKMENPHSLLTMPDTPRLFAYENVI
T2 sequence (Q9NQ25 23-335): as above

C[C@@H]1C[C@H]2[C@@H]3CCC4=CC(=O)C=C[C@]4(C)[C@@]3(F)[C@@H](O)C[C@]2(C)[C@@]1(O)C(=O)CO [dexamethasone]
TGImax (OPM-2 xenografts; [6]): 25%

Nc1cccc2c1C(=O)N(C1CCC(=O)NC1=O)C2=O (stereo not shown) [pomalidomide, 4-Amino-2-(2,6-dioxopiperidin-3-yl)isoindole-1,3-dione]
TGImax (OPM-2 xenografts; [6]): 34%

CC(C)C[C@H](NC(=O)[C@H](CCc1ccccc1)NC(=O)CN1CCOCC1)C(=O)N[C@@H](Cc1ccccc1)C(=O)N[C@@H](CC(C)C)C(=O)[C@@]1(C)CO1 [carfilzomib, (S)-4-Methyl-N-((S)-1-(((S)-4-methyl-1-((R)-2-methyloxiran-2-yl)-1-oxopentan-2-yl)amino)-1-oxo-3-phenylpropan-2-yl)-2-((S)-2-(2-morpholinoacetamido)-4-phenylbutanamido)pentanamide]
TGImax (OPM-2 xenografts; Example 28, single agents, carfilzomib at 1.5 and 3 mg/kg): < 10%

CC(C)C[C@H](NC(=O)[C@H](Cc1ccccc1)NC(=O)c1cnccn1)B(O)O [bortezomib, [(1R)-3-methyl-1-[[(2S)-1-oxo-3-phenyl-2-[(pyrazinylcarbonyl)amino]propyl]amino]butyl]boronic acid]
TGImax (OPM-2 xenografts; Example 27, Hu34C3-MMAE E2 3 mg/kg, bortezomib 1 mg/kg): 58%
TGImax at end of two week treatment (OPM-2 xenografts; Example 31, bortezomib twice a week for two weeks): 66%

B1: Mu12D10 (conjugate)
VH: EVKLVESEGGLVQPGSSMKLSCTASGFTFSDYFMAWVRQVPEKGLEWVASINYDGNSTYFLDSLKSRFIISRDNAKNILYLQMSSLKSEDTATYYCARDRGFYFDYWGQGTTLTVSS
VL: DVVMTQTPLSLPVSLGDQASISCRFSQSLVHRNGNTYLHWYLQKPGQSPKLLIYKVSNRFSGVPDRFSGSGSGTDFTLKISRVEAEDLGVYFCSQSTHVRPYTFGGGTKLEIR
modifications: conjugate
Competition with AF488-labeled PDL241 for binding (human CS1 [1]): do not compete with PDL241
IC50 [2, 7]: 0.15 nM
IC50 [2, 8]: 0.2 nM

B2: Mu14C11 (conjugate)
VH: B1 VH with F33Y, N56S, F60Y, S85G, Y95S
VL: B1 VL with F25S, R100P, R113K
modifications: conjugate
Competition with AF488-labeled PDL241 for binding (human CS1 [1]): do not compete with PDL241
IC50 [2, 7]: 0.25 nM
IC50 [2, 8]: 0.31 nM

B3: Mu27A12 (conjugate)
VH: B1 VH with F33Y, S50E, N56S, F60Y, S85N
VL: B1 VL with F25S, R32N, R100P, R113K
modifications: conjugate
Competition with AF488-labeled PDL241 for binding (human CS1 [1]): do not compete with PDL241
IC50 [2, 9]: 3.5 nM
IC50 [2, 7]: 0.11 nM
IC50 [2, 8]: 0.19 nM

B4: Mu31D2 (conjugate)
VH: B1 VH with F33Y, S50D, N56G, F60Y, Y80C, F102Y
VL: B1 VL with F25S, R32S, R100P, Y102F, R113K
modifications: conjugate
Competition with AF488-labeled PDL241 for binding (human CS1 [1]): do not compete with PDL241
IC50 [2, 9]: 3.5 nM
IC50 [2, 7]: 0.12 nM
IC50 [2, 8]: 0.2 nM

B5: Mu34C3: murine anti-CS1 antibody, VH SEQ ID NO: 5, VL SEQ ID NO: 6; in Table 5 tested as MMAE, MMAF, duocarmycin ADCs (antibody, V domains shown)
VH: B1 VH with F33Y, N56S, F60Y, Y80F, S84N, F102Y
VL: B1 VL with F25S, R32S, R100P, Y102F, R113K
Competition with AF488-labeled PDL241 for binding (human CS1 [1]): do not compete with PDL241
IC50 [2, 9]: 1.3 nM
IC50 [2, 7]: 0.08 nM
IC50 [2, 8]: 0.25 nM

B6: Hu27A12: humanized anti-CS1 antibody, VH SEQ ID NO: 24, VL SEQ ID NO: 26 (antibody, V domains shown)
VH: EVQLVESGGGLVQPGGSLRLSCAASGFTFSDYYMAWVRQAPGKGLEWVAEINYDGSSTYYVDSVKGRFTISRDNAKNSLYLQMNSLRAEDTAVYYCARDRGFYFDYWGQGTTVTVSS
VL: DVVMTQTPLSLSVTPGQPASISCRSSQSLVHNNGNTYLHWYLQKPGQSPQLLIYKVSNRFSGVPDRFSGSGSGTDFTLKISRVEAEDVGVYFCSQSTHVPPYTFGGGTKVEIK
Competition with AF488-labeled elotuzumab for binding (human CS1 [3]): do not compete with, and bind different epitopes than, elotuzumab
Competition with AF488-labeled PDL241 for binding (human CS1 [4]): do not compete with, and bind different epitopes than, PDL241
Competition with AF488-labeled Luc34.3.8 for binding (HuCS1): do not compete with, and bind different epitopes than, Luc34.3.8
Competition with AF488-labeled Hu34C3 for binding (human CS1 [5]): None of the anti-CS1 antibodies tested (including Hu27A12 and Hu31D2) compete with Hu34C3

B7: Hu31D2: humanized anti-CS1 antibody, VH SEQ ID NO: 16, VL SEQ ID NO: 19 (antibody, V domains shown)
VH: B6 VH with E50D, S56G, V61L, V64L, G66S, F102Y, T112L
VL: B6 VL with T7S, S12P, Q17E, N32S, Y102F
Competition with AF488-labeled elotuzumab for binding (human CS1 [3]): do not compete with, and bind different epitopes than, elotuzumab
Competition with AF488-labeled PDL241 for binding (human CS1 [4]): do not compete with, and bind different epitopes than, PDL241
Competition with AF488-labeled Luc34.3.8 for binding (HuCS1): do not compete with, and bind different epitopes than, Luc34.3.8
Competition with AF488-labeled Hu34C3 for binding (human CS1 [5]): None of the anti-CS1 antibodies tested (including Hu27A12 and Hu31D2) compete with Hu34C3
